What was measured:
[1] = tested on: HeLa Kyoto; test: solubility in G1/S (NP-40 vs SDS abundance) (log2 ratio); higher = more soluble; conditions: cell cycle stage: G1/S
[2] = tested on: HeLa Kyoto; test: melting temperature (median over replicates), in situ; higher = more thermally stable
[3] = tested on: HeLa Kyoto; test: solubility change mitosis vs G1/S (difference of NP-40 vs SDS log2 ratios) (log2 ratio difference); higher = more soluble in mitosis
[4] = tested on: HeLa Kyoto; test: thermal stability score vs G1/S (z-score of summed log2 fold changes over temperatures); higher = more thermally stable than in G1/S
[5] = cell cycle stage: early G1 (4.5 h after nocodazole release)
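Wherever melting temperature (median over replicates), in situ is given: HeLa Kyoto cells synchronized by double thymidine or nocodazole block, proteins quantified by TMT10plex mass spectrometry, three independent biological replicates.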
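Wherever solubility change mitosis vs G1/S (difference of NP-40 vs SDS log2 ratios) is given: synchronized HeLa Kyoto cells (double thymidine block for G1/S, nocodazole release for mitosis), protein amounts in NP-40 versus SDS lysates quantified by mass spectrometry, three biological replicates.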
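Wherever solubility in G1/S (NP-40 vs SDS abundance) is given: HeLa Kyoto cells arrested at G1/S by double thymidine block, proteins quantified by TMT10plex mass spectrometry in mild NP-40 versus SDS extracts, three biological replicates.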
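Wherever thermal stability score vs G1/S (z-score of summed log2 fold changes over temperatures) is given: synchronized HeLa Kyoto cells, proteins quantified by TMT10plex mass spectrometry, three biological replicates, mitosis taken 0.5 h after nocodazole release, G1/S directly after double thymidine block.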

Sequence | solubility in G1/S (log2) [1] | melting temperature ([2]; cell cycle stage: G1/S) | melting temperature ([2]; cell cycle stage: mitosis) | solubility change mitosis (log2) [3] | thermal stability score [4, 5] | thermal stability score ([4]; cell cycle stage: mitosis)
MGGGWWWARAARLARLRFRRSLLPPQRPRSGGARGSFAPGHGPRAGASPPPVSELDRADAWLLRKAHETAFLSWFRNGLLASGIGVISFMQSDMGREAAYGFFLLGGLCVVWGSASYAVGLAALRGPMQLTLGGAAVGAGAVLAASLLWACAVGLYMGQLELDVELVPEDDGTASAEGPDEAGRPPPE [TMEM160] | -0.112 | 54.2 °C | 56.9 °C | -0.0483 | -1.62 | -1.47
MGGKLSKKKKGYNVNDEKAKEKDKKAEGAATEEEGTPKESEPQAAAEPAEAKEGKEKPDQDAEGKAEEKEGEKDAAAAKEEAPKAEPEKTEGAAEAKAEPPKAPEQEQAAPGPAAGGEAPKAAEAAAAPAESAAPAAGEEPSKEEGEPKKTEAPAAPAAQETKSDGAPASDSKPGSSEAAPSSKETPAATEAPSSTPKAQGPAASAEEPKPVEAPAANSDQTVTVKE [BASP1] | -1.08 | 48.2 °C |  | 0.98 | -5.91 | -9.69
MGGSASSQLDEGKCAYIRGKTEAAIKNFSPYYSRQYSVAFCNHVRTEVEQQRDLTSQFLKTKPPLAPGTILYEAELSQFSEDIKKWKERYVVVKNDYAVESYENKEAYQRGAAPKCRILPAGGKVLTSEDEYNLLSDRHFPDPLASSEKENTQPFVVLPKEFPVYLWQPFFRHGYFCFHEAADQKRFSALLSDCVRHLNHDYMKQMTFEAQAFLEAVQFFRQEKGHYGSWEMITGDEIQILSNLVMEELLPTLQTDLLPKMKGKKNDRKRTWLGLLEEAYTLVQHQVSEGLSALKEECRALTKGLEGTIRSDMDQIVNSKNYLIGKIKAMVAQPAEKSCLESVQPFLASILEELMGPVSSGFSEVRVLFEKEVNEVSQNFQTTKDSVQLKEHLDRLMNLPLHSVKMEPCYTKVNLLHERLQDLKSRFRFPHIDLVVQRTQNYMQELMENAVFTFEQLLSPHLQGEASKTAVAIEKVKLRVLKQYDYDSSTIRKKIFQEALVQITLPTVQKALASTCKPELQKYEQFIFADHTNMIHVENVYEEILHQILLDETLKVIKEAAILKKHNLFEDNMALPSESVSSLTDLKPPTGSNQASPARRASAILPGVLGSETLSNEVFQESEEEKQPEVPSSLAKGESLSLPGPSPPPDGTEQVIISRVDDPVVNPVATEDTAGLPGTCSSELEFGGTLEDEEPAQEEPEPITASGSLKALRKLLTASVEVPVDSAPVMEEDTNGESHVPQENEEEEEKEPSQAAAIHPDNCEESEVSEREAQPPCPEAHGEELGGFPEVGSPASPPASGGLTEEPLGPMEGELPGEACTLTAHEGRGGKCTEEGDASQQEGCTLGSDPICLSESQVSEEQEEMGGQSSAAQATASVNAEEIKVARIHECQWVVEDAPNPDVLLSHKDDVKEGEGGQESFPELPSEE [FAM129A] | 0.169 | 50 °C | 49.7 °C | -0.0907 | 1.18 | 2.35
MGKKGKVGKSRRDKFYHLAKETGYRSRSAFKLIQLNRRFQFLQKARALLDLCAAPGGWLQVAAKFMPVSSLIVGVDLVPIKPLPNVVTLQQDITTERCRQALRKELKTWKVDVVLNDGAPNVGASWVHDAYSQAHLTLMALRLACDFLARGGSFITKVFRSRDYQPLLWIFQQLFRRVQATKPQASRHESAEIFVVCQGFLAPDKVDSKFFDPKFAFKEVEVQAKTVTELVTKKKPKAEGYAEGDLTLYHRTSVTDFLRAANPVDFLSKASEIMVDDEELAQHPATTEDIRVCCQDIRVLGRKELRSLLNWRTKLRRYVAKKLKEQAKALDISLSSGEEDEGDEEDSTAGTTKQPSKEEEEEEEEEQLNQTLAEMKAQEVAELKRKKKKLLREQRKQRERVELKMDLPGVSIADEGETGMFSLSTIRGHQLLEEVTQGDMSAADTFLSDLPRDDIYVSDVEDDGDDTSLDSDLDPEELAGVRGHQGLRDQKRMRLTEVQDDKEEEEEENPLLVPLEEKAVLQEEQANLWFSKGSFAGIEDDADEALEISQAQLLFENRRKGRQQQQKQQLPQTPPSCLKTEIMSPLYQDEAPKGTEASSGTEAATGLEGEEKDGISDSDSSTSSEEEESWEPLRGKKRSRGPKSDDDGFEIVPIEDPAKHRILDPEGLALGAVIASSKKAKRDLIDNSFNRYTFNEDEGELPEWFVQEEKQHRIRQLPVGKKEVEHYRKRWREINARPIKKVAEAKARKKRRMLKRLEQTRKKAEAVVNTVDISEREKVAQLRSLYKKAGLGKEKRHVTYVVAKKGVGRKVRRPAGVRGHFKVVDSRMKKDQRAQQRKEQKKKHKRK [FTSJ3] | -2.41 | 49.7 °C | 52 °C | 1.11 | 4.05 | 7.76
MGKSDFLTPKAIANRIKSKGLQKLRWYCQMCQKQCRDENGFKCHCMSESHQRQLLLASENPQQFMDYFSEEFRNDFLELLRRRFGTKRVHNNIVYNEYISHREHIHMNATQWETLTDFTKWLGREGLCKVDETPKGWYIQYIDRDPETIRRQLELEKKKKQDLDDEEKTAKFIEEQVRRGLEGKEQEVPTFTELSRENDEEKVTFNLSKGACSSSGATSSKSSTLGPSALKTIGSSASVKRKESSQSSTQSKEKKKKKSALDEIMEIEEEKKRTARTDYWLQPEIIVKIITKKLGEKYHKKKAIVKEVIDKYTAVVKMIDSGDKLKLDQTHLETVIPAPGKRILVLNGGYRGNEGTLESINEKTFSATIVIETGPLKGRRVEGIQYEDISKLA [KIN] | -0.339 | 51.1 °C | 49.3 °C | 0.174 | 0.727 | 1.45
MGLLDLCEEVFGTADLYRVLGVRREASDGEVRRGYHKVSLQVHPDRVGEGDKEDATRRFQILGKVYSVLSDREQRAVYDEQGTVDEDSPVLTQDRDWEAYWRLLFKKISLEDIQAFEKTYKGSEEELADIKQAYLDFKGDMDQIMESVLCVQYTEEPRIRNIIQQAIDAGEVPSYNAFVKESKQKMNARKRRAQEEAKEAEMSRKELGLDEGVDSLKAAIQSRQKDRQKEMDNFLAQMEAKYCKSSKGGGKKSALKKEKK [DNAJC9] | 0.502 | 52 °C | 51.8 °C | 0.21 | -3.62 | -5.66
MGLLRGGLPCARAMARLGAVRSHYCALLLAAALAVCAFYYLGSGRETFSSATKRLKEARAGAPAAPSPPALELARGSVAPAPGAKAKSLEGGGAGPVDYHLLMMFTKAEHNAALQAKARVALRSLLRLAKFEAHEVLNLHFVSEEASREVAKGLLRELLPPAAGFKCKVIFHDVAVLTDKLFPIVEAMQKHFSAGLGTYYSDSIFFLSVAMHQIMPKEILQIIQLDLDLKFKTNIRELFEEFDSFLPGAIIGIAREMQPVYRHTFWQFRHENPQTRVGGPPPEGLPGFNSGVMLLNLEAMRQSPLYSRLLEPAQVQQLADKYHFRGHLGDQDFFTMIGMEHPKLFHVLDCTWNRQLCTWWRDHGYSDVFEAYFRCEGHVKIYHGNCNTPIPED [XXYLT1] | -0.0927 | 54.9 °C | 54.7 °C | -0.0858 | -1.07 | -1.02
MGLQACLLGLFALILSGKCSYSPEPDQRRTLPPGWVSLGRADPEEELSLTFALRQQNVERLSELVQAVSDPSSPQYGKYLTLENVADLVRPSPLTLHTVQKWLLAAGAQKCHSVITQDFLTCWLSIRQAELLLPGAEFHHYVGGPTETHVVRSPHPYQLPQALAPHVDFVGGLHRFPPTSSLRQRPEPQVTGTVGLHLGVTPSVIRKRYNLTSQDVGSGTSNNSQACAQFLEQYFHDSDLAQFMRLFGGNFAHQASVARVVGQQGRGRAGIEASLDVQYLMSAGANISTWVYSSPGRHEGQEPFLQWLMLLSNESALPHVHTVSYGDDEDSLSSAYIQRVNTELMKAAARGLTLLFASGDSGAGCWSVSGRHQFRPTFPASSPYVTTVGGTSFQEPFLITNEIVDYISGGGFSNVFPRPSYQEEAVTKFLSSSPHLPPSSYFNASGRAYPDVAALSDGYWVVSNRVPIPWVSGTSASTPVFGGILSLINEHRILSGRPPLGFLNPRLYQQHGAGLFDVTRGCHESCLDEEVEGQGFCSGPGWDPVTGWGTPNFPALLKTLLNP [TPP1] | 0.472 | 53.8 °C | 53.9 °C | -0.0648 | -0.723 | -1.17
MGLTVSALFSRIFGKKQMRILMVGLDAAGKTTILYKLKLGEIVTTIPTIGFNVETVEYKNICFTVWDVGGQDKIRPLWRHYFQNTQGLIFVVDSNDRERVQESADELQKMLQEDELRDAVLLVFANKQDMPNAMPVSELTDKLGLQHLRSRTWYVQATCATQGTGLYDGLDWLSHELSKR [ARF5] | -0.196 | 55.4 °C | 55.9 °C | -0.212 | 1.02 | 1.14
MGMWASLDALWEMPAEKRIFGAVLLFSWTVYLWETFLAQRQRRIYKTTTHVPPELGQIMDSETFEKSRLYQLDKSTFSFWSGLYSETEGTLILLFGGIPYLWRLSGRFCGYAGFGPEYEITQSLVFLLLATLFSALTGLPWSLYNTFVIEEKHGFNQQTLGFFMKDAIKKFVVTQCILLPVSSLLLYIIKIGGDYFFIYAWLFTLVVSLVLVTIYADYIAPLFDKFTPLPEGKLKEEIEVMAKSIDFPLTKVYVVEGSKRSSHSNAYFYGFFKNKRIVLFDTLLEEYSVLNKDIQEDSGMEPRNEEEGNSEEIKAKVKNKKQGCKNEEVLAVLGHELGHWKLGHTVKNIIISQMNSFLCFFLFAVLIGRKELFAAFGFYDSQPTLIGLLIIFQFIFSPYNEVLSFCLTVLSRRFEFQADAFAKKLGKAKDLYSALIKLNKDNLGFPVSDWLFSMWHYSHPPLLERLQALKTMKQH [ZMPSTE24] | -0.147 | 55.2 °C | 54.4 °C | -0.171 | -0.261 | -0.906
MGNCCWTQCFGLLRKEAGRLQRVGGGGGSKYFRTCSRGEHLTIEFENLVESDEGESPGSSHRPLTEEEIVDLRERHYDSIAEKQKDLDKKIQKELALQEEKLRLEEEALYAAQREAARAAKQRKLLEQERQRIVQQYHPSNNGEYQSSGPEDDFESCLRNMKSQYEVFRSSRLSSDATVLTPNTESSCDLMTKTKSTSGNDDSTSLDLEWEDEEGMNRMLPMRERSKTEEDILRAALKYSNKKTGSNPTSASDDSNGLEWENDFVSAEMDDNGNSEYSGFVNPVLELSDSGIRHSDTDQQTR [AP1AR] | 0.104 |  | 59.6 °C | -0.24 | -0.31 | -1.09
MGNGGRSGLQQGKGNVDGVAATPTAASASCQYRCIECNQEAKELYRDYNHGVLKITICKSCQKPVDKYIEYDPVIILINAILCKAQAYRHILFNTQINIHGKLCIFCLLCEAYLRWWQLQDSNQNTAPDDLIRYAKEWDFYRMFAIAALEQTAYFIGIFTFLWVERPMTAKKKPNFILLLKALLLSSYGKLLLIPAVIWEHDYTSVCLKLIKVFVLTSNFQAIRVTLNINRKLSFLAVLSGLLLESIMVYFFQSMEWDVGSDYAIFKSQDF [ARV1] | -0.481 |  | 49.2 °C | -0.0477 | -0.687 | -0.97
MGNLLKVLTCTDLEQGPNFFLDFENAQPTESEKEIYNQVNVVLKDAEGILEDLQSYRGAGHEIREAIQHPADEKLQEKAWGAVVPLVGKLKKFYEFSQRLEAALRGLLGALTSTPYSPTQHLEREQALAKQFAEILHFTLRFDELKMTNPAIQNDFSYYRRTLSRMRINNVPAEGENEVNNELANRMSLFYAEATPMLKTLSDATTKFVSENKNLPIENTTDCLSTMASVCRVMLETPEYRSRFTNEETVSFCLRVMVGVIILYDHVHPVGAFAKTSKIDMKGCIKVLKDQPPNSVEGLLNALRYTTKHLNDETTSKQIKSMLQ [FAM49B] | 0.31 | 54.2 °C | 54.2 °C | 0.0154 | 1.27 | 0.808
